Values joined by “and” are separate entries in the source; they are usually repeats but may differ in a detail not shown here. Equal entries are not always repeated.
T1: Gemin2 (UniProt O14893 1-280)
T1 sequence (looked up): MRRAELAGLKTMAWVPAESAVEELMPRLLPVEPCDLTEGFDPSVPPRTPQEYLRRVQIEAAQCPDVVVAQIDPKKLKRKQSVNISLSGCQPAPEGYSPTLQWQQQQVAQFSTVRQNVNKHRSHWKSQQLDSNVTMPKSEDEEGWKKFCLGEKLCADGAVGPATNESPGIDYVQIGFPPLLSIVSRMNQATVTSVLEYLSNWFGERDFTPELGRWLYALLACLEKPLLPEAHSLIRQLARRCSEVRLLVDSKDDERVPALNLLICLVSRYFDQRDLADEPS

B1: SMN Δexon5 (SMNΔ5) (natural protein, human, UniProt Q16637-2 1-262, looked up)
chain: MAMSSGGSGGGVPEQEDSVLFRRGTGQSDDSDIWDDTALIKAYDKAVASFKHALKNGDICETSGKPKTTPKRKPAKKNKSQKKNTAASLQQWKVGDKCSAIWSEDGCIYPATIASIDFKRETCVVVYTGYGNREEQNLSDLLSPICEVANNIEQNAQENENESQVSTDESENSRSPGNKSDNIKPKSAPWNSFLPPPPPMPGPRLGPGKIIPPPPPICPDSLDDADALGSMLISWYMSGYHTGYYMGFRQNQKEGRCSHSLN
B2: MBP-SMN^229–294 (domain or fragment, human, UniProt Q16637 229-294, looked up)
chain: LSCWLPPFPSGPPIIPPPPPICPDSLDDADALGSMLISWYMSGYHTGYYMGFRQNQKEGRCSHSLN

Molecular target: the molecule itself
Test: SEC-MALS

Row | Binder | stoichiometry N
1 | DSLDDADALGIMLISWYMSGYHTGYYMGFRQNQKEGRCSHSLN (domain or fragment, human, UniProt Q16637 252-294, looked up) [MBP-YG^252–294 S262I] | ≥ 4
2 | DSLDDADALGGMLISWYMSGYHTGYYMGFRQNQKEGRCSHSLN (domain or fragment, human, UniProt Q16637 252-294, looked up) [MBP-YG^252–294 S262G] | 4
3 | DSLDDADALGSMLISWYMSGYRTGYYMGFRQNQKEGRCSHSLN (domain or fragment, human, UniProt Q16637 252-294, looked up) [MBP-YG^252–294 H273R] | 4
4 | DSLDDADALGSMLISWYMSGYHTGYYMCFRQNQKEGRCSHSLN (domain or fragment, human, UniProt Q16637 252-294, looked up) [MBP-YG^252–294 G279C] | ≥ 4
5 | DSLDDADALGSMLISWYMSGYHIGYYMGFRQNQKEGRCSHSLN (domain or fragment, human, UniProt Q16637 252-294, looked up) [MBP-YG^252–294 T274I] | 4
6 | DSLDDADALGSMLISWYMSGYHTGYYMGFRQNQKEGRCSHSLN (domain or fragment, human, UniProt Q16637 252-294, looked up) [MBP-YG^252–294] | 4

Molecular target: the molecule itself
Test: SEC-MALS
Remark: another data set of the same source

Row | Binder | stoichiometry N
7 | DSLDDADALASMLISWYMSGYHTGYYMGFRQNQKEGRCSHSLN (domain or fragment, human, UniProt Q16637 252-294, looked up) [MBP-YG^252–294 G261A] | ≥ 4
8 | DSLDDADALGSMLISWYMAGYHTGYYMGFRQNQKEGRCSHSLN (domain or fragment, human, UniProt Q16637 252-294, looked up) [MBP-YG^252–294 S270A] | ≥ 4
9 | DSLDDADALGSMLISWYMSGYHTGYYMAFRQNQKEGRCSHSLN (domain or fragment, human, UniProt Q16637 252-294, looked up) [MBP-YG^252–294 G279A] | ≥ 4
10 | DSLDDADALGSMLISWYMSGYHTGYYMGFRQAQKEGRCSHSLN (domain or fragment, human, UniProt Q16637 252-294, looked up) [MBP-YG^252–294 N283A] | ≥ 4

Each binder was assayed against T1, Gemin2 (assay: co-purification).

Row | Binder | stoichiometry N
11 | B1 | 1

Molecular target: the molecule itself
Test: not given

Row | Binder | stoichiometry N
12 | MLISWYMSGYHTGYYMGFRQNQKEGRCSHSLN (domain or fragment, human, UniProt Q16637 263-294, looked up) [MBP-YG^263–294] | 2
13 | B2 | 4 and 8
